For this series, the target named is T1, AP2-G D1 (Plasmodium falciparum, UniProt Q8I5I9 2123-2245).
T1 sequence: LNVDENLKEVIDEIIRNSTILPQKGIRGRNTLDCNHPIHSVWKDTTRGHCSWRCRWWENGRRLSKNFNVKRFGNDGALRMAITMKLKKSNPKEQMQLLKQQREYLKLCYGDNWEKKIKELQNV
Nature of the series: gcPBM; about 25 ug protein; PBS, 1% milk, 0.2 mg/ml BSA, salmon testes DNA, 0.03% Triton X-100. To be noted: tags: N-terminal GST (pGEX-4T-1), kept; label: surface-attached array probe.

B1: XGTACX_negctrl_site431 (dsDNA)
DNA 1: TTATTAAAATATACATTTGAAAGTAATCTTATTTAA
DNA 2: TTAAATAAGATTACTTTCAAATGTATATTTTAATAA
For B1, the binding signal is 9.42 ln median PBM intensity, better of two orientations.

B2: XGTACX_negctrl_site434 (dsDNA)
DNA 1: ATGCAACTATATATATATATTATATGTATGAATAAT
DNA 2: ATTATTCATACATATAATATATATATATAGTTGCAT
On to B2, for which the binding signal is 9.5 ln median PBM intensity, better of two orientations.

B3: XGTACX_negctrl_site114 (dsDNA)
DNA 1: TATTATTGTCATTTTTTTTTTTTTTTTTTCTATTTC
DNA 2: GAAATAGAAAAAAAAAAAAAAAAAATGACAATAATA
Regarding B3, the binding signal is 9.51 ln median PBM intensity, better of two orientations.

B4: XGTACX_negctrl_site390 (dsDNA)
DNA 1: TTATGAATATTGATGTATAAAAAAATATATATGTTA
DNA 2: TAACATATATATTTTTTTATACATCAATATTCATAA
With B4, the binding signal is 9.46 ln median PBM intensity, better of two orientations.

B5: XGTACX_negctrl_site280 (dsDNA)
DNA 1: AATTAATATATAAATAATAAAAAAAAATATATAAAC
DNA 2: GTTTATATATTTTTTTTTATTATTTATATATTAATT
On to B5, for which the binding signal is 9.42 ln median PBM intensity, better of two orientations.

B6: XGTACX_negctrl_site79 (dsDNA)
DNA 1: TACATGTATGTAATATGTTTTATTTTTTTCATCTCT
DNA 2: AGAGATGAAAAAAATAAAACATATTACATACATGTA
Turning to B6, the binding signal is 9.12 ln median PBM intensity, better of two orientations.

B7: XGTACX_negctrl_site51 (dsDNA)
DNA 1: AAAAATAAAAAATATAAAAATATAAAAATATAAAAA
DNA 2: TTTTTATATTTTTATATTTTTATATTTTTTATTTTT
For B7, the binding signal was 9.09 ln median PBM intensity, better of two orientations.

B8: XGTACX_negctrl_site606 (dsDNA)
DNA 1: TTTTTATATATATGTATAAATATTTTTTCTATTTAT
DNA 2: ATAAATAGAAAAAATATTTATACATATATATAAAAA
With B8, the binding signal was 9.44 ln median PBM intensity, better of two orientations.

B9: XGTACX_negctrl_site425 (dsDNA)
DNA 1: ATTTGTATATAATATATATAATTTTTTTTTTTTGTT
DNA 2: AACAAAAAAAAAAAATTATATATATTATATACAAAT
For B9, the binding signal was 9.44 ln median PBM intensity, better of two orientations.

B10: XGTACX_negctrl_site582 (dsDNA)
DNA 1: TATTAAAAGAAAAAAAAAAAAAAATTAATACATATA
DNA 2: TATATGTATTAATTTTTTTTTTTTTTTCTTTTAATA
B10: the binding signal is 9.38 ln median PBM intensity, better of two orientations.

B11: XGTACX_negctrl_site8 (dsDNA)
DNA 1: TAAAACATGTTTTTATATATTATTATTATATTTATA
DNA 2: TATAAATATAATAATAATATATAAAAACATGTTTTA
B11: the binding signal is 9.11 ln median PBM intensity, better of two orientations.

B12: XGTACX_negctrl_site404 (dsDNA)
DNA 1: ATAAAATAAATATTTTGTTATTTATTTAATCTAATA
DNA 2: TATTAGATTAAATAAATAACAAAATATTTATTTTAT
Consider B12, for which the binding signal is 9.22 ln median PBM intensity, better of two orientations.

B13: XGTACX_negctrl_site344 (dsDNA)
DNA 1: TACAAAAAAATAAATAATAAAAAAAAATATATATAA
DNA 2: TTATATATATTTTTTTTTATTATTTATTTTTTTGTA
Consider B13, for which the binding signal was 9.07 ln median PBM intensity, better of two orientations.

B14: XGTACX_negctrl_site402 (dsDNA)
DNA 1: AAAAGAATAATAATTTATGTATATTAATTAAAGAAT
DNA 2: ATTCTTTAATTAATATACATAAATTATTATTCTTTT
In the case of B14, the binding signal is 9.4 ln median PBM intensity, better of two orientations.

B15: XGTACX_negctrl_site414 (dsDNA)
DNA 1: TATCTTTTTATTTTTTATTTTTTTTTTATAATTTAC
DNA 2: GTAAATTATAAAAAAAAAATAAAAAATAAAAAGATA
With B15, the binding signal is 9.42 ln median PBM intensity, better of two orientations.

B16: XGTACX_negctrl_site205 (dsDNA)
DNA 1: AACAATATATTGATATTATTTTAAGTGATTATATAT
DNA 2: ATATATAATCACTTAAAATAATATCAATATATTGTT
Consider B16, for which the binding signal was 9.41 ln median PBM intensity, better of two orientations.

B17: XGTACX_negctrl_site68 (dsDNA)
DNA 1: AATATAGAAATAAATATATCACATTTGTGTTTAAAC
DNA 2: GTTTAAACACAAATGTGATATATTTATTTCTATATT
With B17, the binding signal is 9.45 ln median PBM intensity, better of two orientations.

B18: XGTACX_negctrl_site342 (dsDNA)
DNA 1: ATGAACGGAAAAATATATATAAATATATATATCATG
DNA 2: CATGATATATATATTTATATATATTTTTCCGTTCAT
With B18, the binding signal was 9.47 ln median PBM intensity, better of two orientations.

B19: XGTACX_negctrl_site296 (dsDNA)
DNA 1: AATGAATTTAATTCTACTATTTTTTTTTTAAATATT
DNA 2: AATATTTAAAAAAAAAATAGTAGAATTAAATTCATT
As for B19, the binding signal is 9.5 ln median PBM intensity, better of two orientations.

B20: XGTACX_negctrl_site55 (dsDNA)
DNA 1: ATGGAATATTTCATGATTTTTTTAATTTTTTTATTG
DNA 2: CAATAAAAAAATTAAAAAAATCATGAAATATTCCAT
As to B20, the binding signal is 9.52 ln median PBM intensity, better of two orientations.

B21: XGTACX_negctrl_site185 (dsDNA)
DNA 1: AAACAACAAAAATGATATATATAAAATTTATAATAT
DNA 2: ATATTATAAATTTTATATATATCATTTTTGTTGTTT
Consider B21, for which the binding signal was 9.32 ln median PBM intensity, better of two orientations.

B22: XGTACX_negctrl_site466 (dsDNA)
DNA 1: TTTATATTTATATAAATATAATATATATGAATTATA
DNA 2: TATAATTCATATATATTATATTTATATAAATATAAA
On to B22, for which the binding signal is 9.51 ln median PBM intensity, better of two orientations.

B23: XGTACX_negctrl_site127 (dsDNA)
DNA 1: TTTTTAAAAAAATTGATTCTTTTTCTTTTTTTTCTT
DNA 2: AAGAAAAAAAAGAAAAAGAATCAATTTTTTTAAAAA
Consider B23, for which the binding signal was 9.16 ln median PBM intensity, better of two orientations.

B24: XGTACX_negctrl_site84 (dsDNA)
DNA 1: TTCAAAAAATAAAATAATAATATATATATAAATATA
DNA 2: TATATTTATATATATATTATTATTTTATTTTTTGAA
Consider B24, for which the binding signal was 9.17 ln median PBM intensity, better of two orientations.

B25: XGTACX_negctrl_site511 (dsDNA)
DNA 1: ATGAAATCTTTAGAATATAGATGATGTTATTTAATT
DNA 2: AATTAAATAACATCATCTATATTCTAAAGATTTCAT
As to B25, the binding signal is 9.15 ln median PBM intensity, better of two orientations.

B26: XGTACX_negctrl_site499 (dsDNA)
DNA 1: TTTTACTATGATATTTATATATCTATATATGTATAT
DNA 2: ATATACATATATAGATATATAAATATCATAGTAAAA
B26: the binding signal was 9.32 ln median PBM intensity, better of two orientations.

B27: XGTACX_negctrl_site340 (dsDNA)
DNA 1: AAAAAATAAATAAACATAAATAAATAAATAAATATA
DNA 2: TATATTTATTTATTTATTTATGTTTATTTATTTTTT
Turning to B27, the binding signal is 9.52 ln median PBM intensity, better of two orientations.

B28: XGTACX_negctrl_site397 (dsDNA)
DNA 1: TTTTTTTTCAATCTCTATATATTAAGGTTTATATTT
DNA 2: AAATATAAACCTTAATATATAGAGATTGAAAAAAAA
For the molecule B28, the binding signal is 9.41 ln median PBM intensity, better of two orientations.

B29: XGTACX_negctrl_site407 (dsDNA)
DNA 1: AATATATATATAAATAATATACCTATATATTTTTTG
DNA 2: CAAAAAATATATAGGTATATTATTTATATATATATT
With B29, the binding signal is 9.52 ln median PBM intensity, better of two orientations.

B30: XGTACX_negctrl_site412 (dsDNA)
DNA 1: AAAGGAGACAGAATAAGAATAAATATTATACATATA
DNA 2: TATATGTATAATATTTATTCTTATTCTGTCTCCTTT
With B30, the binding signal was 9.08 ln median PBM intensity, better of two orientations.

B31: XGTACX_negctrl_site428 (dsDNA)
DNA 1: AACAAGAAAAAAAAAAAAAAAAAAAAAAAATATTTT
DNA 2: AAAATATTTTTTTTTTTTTTTTTTTTTTTTCTTGTT
As to B31, the binding signal is 9.36 ln median PBM intensity, better of two orientations.

B32: XGTACX_negctrl_site42 (dsDNA)
DNA 1: AATGAATAACAATACTATATGATTTTTAATACATTA
DNA 2: TAATGTATTAAAAATCATATAGTATTGTTATTCATT
Regarding B32, the binding signal was 9.52 ln median PBM intensity, better of two orientations.

B33: XGTACX_negctrl_site478 (dsDNA)
DNA 1: TACATATATATAATATATATATCATCATATTTTCTT
DNA 2: AAGAAAATATGATGATATATATATTATATATATGTA
On to B33, for which the binding signal was 9.22 ln median PBM intensity, better of two orientations.

B34: XGTACX_negctrl_site18 (dsDNA)
DNA 1: TCATAAAAAGGAATCTTTAAGATATTTTATAAGCTC
DNA 2: GAGCTTATAAAATATCTTAAAGATTCCTTTTTATGA
Consider B34, for which the binding signal is 9.17 ln median PBM intensity, better of two orientations.

B35: XGTACX_negctrl_site375 (dsDNA)
DNA 1: AAATAAAATATATACATATATATATTATTTAGTAAT
DNA 2: ATTACTAAATAATATATATATGTATATATTTTATTT
With B35, the binding signal was 9.35 ln median PBM intensity, better of two orientations.

B36: XGTACX_negctrl_site234 (dsDNA)
DNA 1: ATTATAACTAAATAAATGATATATAATATTTTATTT
DNA 2: AAATAAAATATTATATATCATTTATTTAGTTATAAT
On to B36, for which the binding signal is 9.29 ln median PBM intensity, better of two orientations.

B37: XGTACX_negctrl_site44 (dsDNA)
DNA 1: AAATTAAAATAATAATTCTACAAATTAATTTATCAT
DNA 2: ATGATAAATTAATTTGTAGAATTATTATTTTAATTT
Take B37: the binding signal was 9.42 ln median PBM intensity, better of two orientations.

B38: XGTACX_negctrl_site416 (dsDNA)
DNA 1: TATTTCAAAATAAAATAAAATATATATATATGTATA
DNA 2: TATACATATATATATATTTTATTTTATTTTGAAATA
As for B38, the binding signal was 9.38 ln median PBM intensity, better of two orientations.

B39: XGTACX_negctrl_site100 (dsDNA)
DNA 1: TTTATATTATAATATAATAATGATCTTAATTTTTTT
DNA 2: AAAAAAATTAAGATCATTATTATATTATAATATAAA
On to B39, for which the binding signal is 9.34 ln median PBM intensity, better of two orientations.

B40: XGTACX_negctrl_site140 (dsDNA)
DNA 1: ATCTTATATCGTAGAGATTTTTTTTTTTTTTCATTT
DNA 2: AAATGAAAAAAAAAAAAAATCTCTACGATATAAGAT
On to B40, for which the binding signal was 9.22 ln median PBM intensity, better of two orientations.

B41: XGTACX_negctrl_site550 (dsDNA)
DNA 1: ACGTAATTAATTCATCAGATATAATTAATAATAATA
DNA 2: TATTATTATTAATTATATCTGATGAATTAATTACGT
Take B41: the binding signal was 9.41 ln median PBM intensity, better of two orientations.

Source of the values: publication PMC11417369, “DNA sequence and chromatin differentiate sequence-specific transcription factor binding in the human malaria parasite Plasmodium falciparum”.
